Data from publication PMC9482650, “Quantitative fragmentomics allow affinity mapping of interactomes” (Nature Communications, 2022).

T1: ARHGAP21, Q5T5U3
T1 sequence (Q5T5U3 45-169, limits assumed, looked up): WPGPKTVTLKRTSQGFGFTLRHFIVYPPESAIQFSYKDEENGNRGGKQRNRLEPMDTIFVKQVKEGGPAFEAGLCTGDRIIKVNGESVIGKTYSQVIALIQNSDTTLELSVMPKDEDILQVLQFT

T2: DFNB31_2, Q9P202
T2 sequence (Q9P202 274-371, limits assumed, looked up): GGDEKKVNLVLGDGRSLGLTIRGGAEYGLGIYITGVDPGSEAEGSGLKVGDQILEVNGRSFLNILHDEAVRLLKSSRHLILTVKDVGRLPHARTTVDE

T3: PDZD2_2, O15018
T3 sequence (O15018 329-429, limits assumed, looked up): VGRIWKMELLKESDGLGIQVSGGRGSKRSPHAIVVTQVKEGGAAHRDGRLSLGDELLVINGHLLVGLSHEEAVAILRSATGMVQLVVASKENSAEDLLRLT

T4: HTRA3, P83110
T4 sequence (P83110 354-453, limits assumed, looked up): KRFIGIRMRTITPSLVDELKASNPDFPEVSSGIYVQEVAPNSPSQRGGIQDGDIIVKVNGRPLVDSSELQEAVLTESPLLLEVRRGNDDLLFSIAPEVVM

T5: LIN7A, O14910
T5 sequence (O14910 103-200, limits assumed, looked up): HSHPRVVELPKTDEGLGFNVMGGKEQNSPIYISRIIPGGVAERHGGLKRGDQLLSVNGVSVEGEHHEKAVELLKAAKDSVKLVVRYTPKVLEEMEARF

T6: TX1BP3, O14907
T6 sequence (O14907 10-122, limits assumed, looked up): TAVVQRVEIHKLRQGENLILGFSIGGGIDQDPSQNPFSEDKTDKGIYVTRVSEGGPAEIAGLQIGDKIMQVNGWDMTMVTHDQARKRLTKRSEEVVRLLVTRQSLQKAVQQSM

T7: SYNJ2BP, P57105
T7 sequence (P57105 8-110, limits assumed, looked up): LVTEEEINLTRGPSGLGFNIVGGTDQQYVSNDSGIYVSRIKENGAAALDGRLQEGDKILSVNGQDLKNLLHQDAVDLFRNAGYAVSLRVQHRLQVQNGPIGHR

T8: GRIP1_7, Q9Y3R0
T8 sequence (Q9Y3R0 999-1096, limits assumed, looked up): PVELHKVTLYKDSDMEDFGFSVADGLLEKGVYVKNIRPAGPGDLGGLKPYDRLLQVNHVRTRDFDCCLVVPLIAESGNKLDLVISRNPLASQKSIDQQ


Columns and labels:
Assay in all cases: holdup assay
Set-up in all cases: key: below the threshold = too weak to quantify, mostly under pKd 3.1 to 4
Conditions in all cases: plain residues with an end cap or a label only (N-terminal biotin on a linker: ado-ado)
[1] = biological target: FRMPD2_1, Q68DX3
[2] = biological target: PICK1, Q9NRD5
[3] = biological target: Inadl_8, Q8NI35
[4] = biological target: T1, ARHGAP21, Q5T5U3
[5] = biological target: Inadl_2, Q8NI35
[6] = biological target: DLG5_1, Q8TDM6
[7] = biological target: T2, DFNB31_2, Q9P202
[8] = biological target: MAGI2_5, Q86UL8
[9] = biological target: Inadl_5, Q8NI35
[10] = biological target: T3, PDZD2_2, O15018
[11] = biological target: FRMPD4, Q14CM0
[12] = biological target: IL16_3, Q14005
[13] = biological target: HTRA1, Q92743
[14] = biological target: DLG2_2, Q15700
[15] = biological target: GORASP1, Q9BQQ3
[16] = biological target: MAGI3_2, Q5TCQ9
[17] = biological target: GRIP2_3, Q9C0E4
[18] = biological target: DLG4_3, P78352
[19] = biological target: T4, HTRA3, P83110
[20] = biological target: Inadl_10, Q8NI35
[21] = biological target: GRID2IP_2, A4D2P6
[22] = biological target: T5, LIN7A, O14910
[23] = biological target: T6, TX1BP3, O14907
[24] = biological target: LNX1_2, Q8TBB1
[25] = biological target: TJP1_2, Q07157
[26] = biological target: SCRIB_2, Q14160
[27] = biological target: T7, SYNJ2BP, P57105
[28] = biological target: T8, GRIP1_7, Q9Y3R0
[29] = biological target: MAGI2_3, Q86UL8
MAGI2_3, Q86UL8, sequence (Q86UL8 600-682): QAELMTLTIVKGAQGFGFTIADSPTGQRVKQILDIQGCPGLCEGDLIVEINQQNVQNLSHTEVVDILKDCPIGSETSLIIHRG

PICK1, Q9NRD5, sequence (Q9NRD5 17-115): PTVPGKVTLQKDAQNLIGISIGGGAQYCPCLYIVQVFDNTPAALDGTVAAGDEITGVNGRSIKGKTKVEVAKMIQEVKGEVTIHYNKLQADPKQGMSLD
Inadl_8, Q8NI35, sequence (Q8NI35 1425-1530): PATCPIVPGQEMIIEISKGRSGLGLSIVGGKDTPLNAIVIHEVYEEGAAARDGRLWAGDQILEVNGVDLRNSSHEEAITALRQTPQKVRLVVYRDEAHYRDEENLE
FRMPD2_1, Q68DX3, sequence (Q68DX3 770-861): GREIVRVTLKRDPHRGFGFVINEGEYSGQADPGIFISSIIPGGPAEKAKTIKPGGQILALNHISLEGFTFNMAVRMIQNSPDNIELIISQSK
SCRIB_2, Q14160, sequence (Q14160 857-960): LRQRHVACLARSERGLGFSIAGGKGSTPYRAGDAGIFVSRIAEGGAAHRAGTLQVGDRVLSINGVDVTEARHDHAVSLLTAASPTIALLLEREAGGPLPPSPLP
DLG4_3, P78352, sequence (P78352 306-403): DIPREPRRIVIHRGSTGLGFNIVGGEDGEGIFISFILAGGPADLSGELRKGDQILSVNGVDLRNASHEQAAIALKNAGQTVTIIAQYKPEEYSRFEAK
MAGI2_5, Q86UL8, sequence (Q86UL8 915-1017): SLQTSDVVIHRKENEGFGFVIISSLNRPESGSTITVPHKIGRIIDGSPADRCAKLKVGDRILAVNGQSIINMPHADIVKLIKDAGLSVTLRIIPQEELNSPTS
GRIP2_3, Q9C0E4, sequence (Q9C0E4 238-339): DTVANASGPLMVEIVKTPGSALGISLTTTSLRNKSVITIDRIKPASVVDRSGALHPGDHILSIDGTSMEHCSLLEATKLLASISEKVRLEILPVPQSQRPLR
Inadl_10, Q8NI35, sequence (Q8NI35 1673-1763): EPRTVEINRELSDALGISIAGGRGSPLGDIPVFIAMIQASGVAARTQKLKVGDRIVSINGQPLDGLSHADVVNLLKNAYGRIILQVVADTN
FRMPD4, Q14CM0, sequence (Q14CM0 67-160): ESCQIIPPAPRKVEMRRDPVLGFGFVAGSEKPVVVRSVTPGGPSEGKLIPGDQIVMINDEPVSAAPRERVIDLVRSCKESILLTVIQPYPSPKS
MAGI3_2, Q5TCQ9, sequence (Q5TCQ9 398-503): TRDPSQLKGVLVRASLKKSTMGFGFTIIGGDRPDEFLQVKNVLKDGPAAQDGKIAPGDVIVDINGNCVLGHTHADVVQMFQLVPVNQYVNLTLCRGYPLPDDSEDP
Inadl_5, Q8NI35, sequence (Q8NI35 673-780): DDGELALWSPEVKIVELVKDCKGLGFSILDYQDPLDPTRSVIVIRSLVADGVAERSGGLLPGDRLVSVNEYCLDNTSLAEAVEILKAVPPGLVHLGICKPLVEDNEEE
LNX1_2, Q8TBB1, sequence (Q8TBB1 371-470): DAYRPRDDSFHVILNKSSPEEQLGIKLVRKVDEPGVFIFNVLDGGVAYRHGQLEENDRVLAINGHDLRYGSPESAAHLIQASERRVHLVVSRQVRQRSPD
DLG5_1, Q8TDM6, sequence (Q8TDM6 617-713): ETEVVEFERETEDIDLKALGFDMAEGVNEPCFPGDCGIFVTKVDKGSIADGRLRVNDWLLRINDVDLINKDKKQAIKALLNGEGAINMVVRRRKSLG
DLG2_2, Q15700, sequence (Q15700 189-283): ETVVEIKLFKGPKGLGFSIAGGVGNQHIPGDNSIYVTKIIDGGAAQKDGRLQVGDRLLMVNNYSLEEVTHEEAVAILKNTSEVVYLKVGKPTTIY
Inadl_2, Q8NI35, sequence (Q8NI35 238-335): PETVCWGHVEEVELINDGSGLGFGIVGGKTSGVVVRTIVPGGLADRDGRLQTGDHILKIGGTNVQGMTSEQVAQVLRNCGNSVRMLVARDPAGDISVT
GORASP1, Q9BQQ3, sequence (Q9BQQ3 1-208): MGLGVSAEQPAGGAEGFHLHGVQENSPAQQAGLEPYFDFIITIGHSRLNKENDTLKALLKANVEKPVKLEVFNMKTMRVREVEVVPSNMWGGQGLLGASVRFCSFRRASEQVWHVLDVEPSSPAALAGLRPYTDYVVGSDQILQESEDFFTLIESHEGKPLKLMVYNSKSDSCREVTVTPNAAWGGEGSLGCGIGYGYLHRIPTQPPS
GRID2IP_2, A4D2P6, sequence (A4D2P6 272-370): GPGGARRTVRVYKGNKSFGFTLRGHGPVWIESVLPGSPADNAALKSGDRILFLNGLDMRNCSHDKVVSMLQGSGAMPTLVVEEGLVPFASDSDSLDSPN
IL16_3, Q14005, sequence (Q14005 1107-1207): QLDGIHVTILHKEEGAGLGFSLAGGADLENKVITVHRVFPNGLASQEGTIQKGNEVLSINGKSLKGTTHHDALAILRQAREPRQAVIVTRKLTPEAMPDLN
TJP1_2, Q07157, sequence (Q07157 181-274): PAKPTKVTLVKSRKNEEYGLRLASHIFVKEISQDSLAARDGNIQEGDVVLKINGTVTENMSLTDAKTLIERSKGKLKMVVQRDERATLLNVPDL
HTRA1, Q92743, sequence (Q92743 360-477): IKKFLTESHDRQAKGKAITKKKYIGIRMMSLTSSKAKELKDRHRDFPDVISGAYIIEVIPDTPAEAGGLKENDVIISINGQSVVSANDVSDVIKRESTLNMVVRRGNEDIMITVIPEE

Row | Binder | pKd [1] | pKd [2] | pKd [3] | pKd [4] | pKd [5] | pKd [6] | pKd [7] | pKd [8] | pKd [9] | pKd [10] | pKd [11] | pKd [12] | pKd [13] | pKd [14] | pKd [15] | pKd [16] | pKd [17] | pKd [18] | pKd [19] | pKd [20] | other results
1 | NRVDSKETEC [ADAM17, P78536] | below the threshold | 4.08 | below the threshold | below the threshold | below the threshold | below the threshold | below the threshold | 3.92 | below the threshold | below the threshold | below the threshold | below the threshold | 3.56 | 4.25 | below the threshold | below the threshold | below the threshold | 4.42 | 3.65 | below the threshold | pKd [21]: below the threshold; pKd [22]: below the threshold; pKd [23]: below the threshold; pKd [24]: below the threshold; pKd [25]: below the threshold; pKd [26]: below the threshold; pKd [27]: 4.28; pKd [28]: below the threshold; pKd [29]: 3.64
2 | SVISRREWYV [NECTIN3, Q9NQS3] | 4.51 | below the threshold | 3.98 | 4.29 | 4.91 | below the threshold | below the threshold | below the threshold | 5.43 | 5.08 | 3.97 | below the threshold | 5.62 | 3.49 | 4.63 | 5.74 | below the threshold | 3.84 | 4.99 | below the threshold | pKd [21]: 3.49; pKd [22]: 3.58; pKd [23]: below the threshold; pKd [24]: 4.59; pKd [25]: 3.82; pKd [26]: below the threshold; pKd [27]: 3.55; pKd [28]: 5.11; pKd [29]: below the threshold
3 | VRPGVKESLV [SCN4A, P35499] | below the threshold | below the threshold | 4.15 | below the threshold | below the threshold | below the threshold | 3.95 | 5.03 | below the threshold | 5.17 | below the threshold | below the threshold | 3.89 | 5.23 | below the threshold | 5.52 | below the threshold | 4.39 | below the threshold | below the threshold | pKd [21]: 3.64; pKd [22]: 3.94; pKd [23]: 4.73; pKd [24]: below the threshold; pKd [25]: below the threshold; pKd [26]: 4.18; pKd [27]: 5.09; pKd [28]: below the threshold; pKd [29]: 4.51
